Data from the supplement of paper PMC10567573.

B1: INTS3 (parent)
chain: DLNSKGKKREFRFHPIKETVVEEP

Variants of: B1
Experiment: protein stability index of a GFP-peptide fusion (GPS, HEK-293T) (PSI 1-6); higher = more stable
Conditions: c terminus: a fixed tail appended
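Further: lentivirally expressed fusions sorted by FACS into six bins by GFP to DsRed ratio, PSI derived from sequencing read proportions per bin multiplied by bin number.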

Variant	protein stability index
DCNSKGKKREFRFHPIKETVVEEP [L2C]	2.22
DFNSKGKKREFRFHPIKETVVEEP [L2F]	2.2
DLNCKGKKREFRFHPIKETVVEEP [S4C]	2.27
DLNTKGKKREFRFHPIKETVVEEP [S4T]	2.49
DLNNKGKKREFRFHPIKETVVEEP [S4N]	1.99
DLNFKGKKREFRFHPIKETVVEEP [S4F]	2.77
DLNHKGKKREFRFHPIKETVVEEP [S4H]	2.24
DLNDKGKKREFRFHPIKETVVEEP [S4D]	2.6
DLNMKGKKREFRFHPIKETVVEEP [S4M]	2.03
DLNPKGKKREFRFHPIKETVVEEP [S4P]	2.41
DLNQKGKKREFRFHPIKETVVEEP [S4Q]	1.88
DLNYKGKKREFRFHPIKETVVEEP [S4Y]	2.24
DLNGKGKKREFRFHPIKETVVEEP [S4G]	2.13
DLNVKGKKREFRFHPIKETVVEEP [S4V]	2.71
DLNAKGKKREFRFHPIKETVVEEP [S4A]	2.42
DLNWKGKKREFRFHPIKETVVEEP [S4W]	1.92
DLNKKGKKREFRFHPIKETVVEEP [S4K]	2.08
DLNRKGKKREFRFHPIKETVVEEP [S4R]	2.23
DLNEKGKKREFRFHPIKETVVEEP [S4E]	3.09
DLNIKGKKREFRFHPIKETVVEEP [S4I]	2.12
DLNLKGKKREFRFHPIKETVVEEP [S4L]	2
DLCSKGKKREFRFHPIKETVVEEP [N3C]	1.78
DLISKGKKREFRFHPIKETVVEEP [N3I]	1.88
DLYSKGKKREFRFHPIKETVVEEP [N3Y]	2.54

Variant	protein stability index
DLESKGKKREFRFHPIKETVVEEP [N3E]	2.9
DLMSKGKKREFRFHPIKETVVEEP [N3M]	1.77
DLQSKGKKREFRFHPIKETVVEEP [N3Q]	2.33
DLDSKGKKREFRFHPIKETVVEEP [N3D]	2.79
DLPSKGKKREFRFHPIKETVVEEP [N3P]	1.87
DLLSKGKKREFRFHPIKETVVEEP [N3L]	2.16
DLGSKGKKREFRFHPIKETVVEEP [N3G]	2.2
DLKSKGKKREFRFHPIKETVVEEP [N3K]	2.19
DLTSKGKKREFRFHPIKETVVEEP [N3T]	2.4
DLWSKGKKREFRFHPIKETVVEEP [N3W]	1.8
DLSSKGKKREFRFHPIKETVVEEP [N3S]	1.76
DLFSKGKKREFRFHPIKETVVEEP [N3F]	1.51
DLASKGKKREFRFHPIKETVVEEP [N3A]	1.83
DLVSKGKKREFRFHPIKETVVEEP [N3V]	1.53
DLHSKGKKREFRFHPIKETVVEEP [N3H]	1.88
DLRSKGKKREFRFHPIKETVVEEP [N3R]	2.08
DLNSKFKKREFRFHPIKETVVEEP [G6F]	1.74
DLNSKQKKREFRFHPIKETVVEEP [G6Q]	2.3
DLNSKDKKREFRFHPIKETVVEEP [G6D]	2.29
DLNSKMKKREFRFHPIKETVVEEP [G6M]	2.4
DLNSKAKKREFRFHPIKETVVEEP [G6A]	2.02
DLNSKSKKREFRFHPIKETVVEEP [G6S]	2.03
DLNSKHKKREFRFHPIKETVVEEP [G6H]	2.74
DLNSKEKKREFRFHPIKETVVEEP [G6E]	2.25

Variant	protein stability index
DLNSKNKKREFRFHPIKETVVEEP [G6N]	2.37
DLNSKIKKREFRFHPIKETVVEEP [G6I]	1.59
DLNSKRKKREFRFHPIKETVVEEP [G6R]	1.33
DLNSKTKKREFRFHPIKETVVEEP [G6T]	2.38
DLNSKPKKREFRFHPIKETVVEEP [G6P]	2.42
DLNSKVKKREFRFHPIKETVVEEP [G6V]	2.56
DLNSKKKKREFRFHPIKETVVEEP [G6K]	1.74
DLNSKLKKREFRFHPIKETVVEEP [G6L]	1.52
DLNSKCKKREFRFHPIKETVVEEP [G6C]	2.23
DLNSWGKKREFRFHPIKETVVEEP [K5W]	2.32
DLNSNGKKREFRFHPIKETVVEEP [K5N]	2.56
DLNSDGKKREFRFHPIKETVVEEP [K5D]	3.04
DLNSFGKKREFRFHPIKETVVEEP [K5F]	1.88
DLNSLGKKREFRFHPIKETVVEEP [K5L]	2.07
DLNSCGKKREFRFHPIKETVVEEP [K5C]	2.05
DLNSGGKKREFRFHPIKETVVEEP [K5G]	2.54
DLNSQGKKREFRFHPIKETVVEEP [K5Q]	2.44
DLNSPGKKREFRFHPIKETVVEEP [K5P]	2.69
DLNSYGKKREFRFHPIKETVVEEP [K5Y]	2.26
DLNSIGKKREFRFHPIKETVVEEP [K5I]	2.32
DLNSRGKKREFRFHPIKETVVEEP [K5R]	2.25
DLNSAGKKREFRFHPIKETVVEEP [K5A]	2.43
DLNSSGKKREFRFHPIKETVVEEP [K5S]	2.35
DLNSEGKKREFRFHPIKETVVEEP [K5E]	2.88

Variant	protein stability index
DLNSTGKKREFRFHPIKETVVEEP [K5T]	2.39
DLNSHGKKREFRFHPIKETVVEEP [K5H]	2.48
DLNSVGKKREFRFHPIKETVVEEP [K5V]	2.76
DLNSMGKKREFRFHPIKETVVEEP [K5M]	2.05
KLNSKGKKREFRFHPIKETVVEEP [D1K]	2.23
ALNSKGKKREFRFHPIKETVVEEP [D1A]	2.01
ILNSKGKKREFRFHPIKETVVEEP [D1I]	1.28
LLNSKGKKREFRFHPIKETVVEEP [D1L]	2.23
TLNSKGKKREFRFHPIKETVVEEP [D1T]	1.52
ELNSKGKKREFRFHPIKETVVEEP [D1E]	2.43
MLNSKGKKREFRFHPIKETVVEEP [D1M]	1.86
CLNSKGKKREFRFHPIKETVVEEP [D1C]	2.26
PLNSKGKKREFRFHPIKETVVEEP [D1P]	1.48
GLNSKGKKREFRFHPIKETVVEEP [D1G]	2.23
QLNSKGKKREFRFHPIKETVVEEP [D1Q]	2.02
NLNSKGKKREFRFHPIKETVVEEP [D1N]	1.56
VLNSKGKKREFRFHPIKETVVEEP [D1V]	2.47
YLNSKGKKREFRFHPIKETVVEEP [D1Y]	1.67
HLNSKGKKREFRFHPIKETVVEEP [D1H]	2.83
FLNSKGKKREFRFHPIKETVVEEP [D1F]	2.24
RLNSKGKKREFRFHPIKETVVEEP [D1R]	1.97
SLNSKGKKREFRFHPIKETVVEEP [D1S]	1.55
